For the series, the system named is DraIII restriction endonuclease (R.DraIII) (Deinococcus radiophilus). Kind of series: cleavage_in_vitro. The following applies: Source-15Q fraction 11; DraIII activity assayed on lambda DNA.

Substance lambda DNA displayed an activity of 121000 u/ml.

For the origin of these results see US6048719.
